What all share (settings): both partners purified
The target of assay [1] is T1, UAF1 with an N-terminal Strep tag (human, UniProt Q8TAF3 1-677).
T1 construct: UAF1 (USP1-associated factor 1), human; Strep11 tag and linker GGSGGS were added N-terminal of the His-3C tag; as the Strep tag is used for capture, the His-3C stretch was probably kept too (surmise); also called Strep-tagged UAF1; N-terminal Strep-tagged UAF1; source: Sf21 (baculovirus), purified; not shown: Strep11, N-terminal, kept
As to the kind of experiment: pull-down; N-terminal Strep-tagged UAF1 complexed with E. coli USP1, 10 μg bound to MagStrep beads and washed; 10 μg recombinant substrate, 1 h on ice; 50 mM Tris pH 7.5, 120 mM NaCl, 5% glycerol, 1 mM DTT, 0.01% Triton X-100, 0.01% ovalbumin; SDS-PAGE; beads without USP1–UAF1 as control.

For assay [2], the target named is T2, UAF1 (USP1-associated factor 1) (human, UniProt Q8TAF3 1-677).
T2 construct: UAF1 (USP1-associated factor 1), human; N-terminal His-3C tag; the methods say tags were removed except from FANCD2, FANCI, USP2 and GST-ubiquitin; source: Sf21 (baculovirus), purified (Ni-NTA, anion exchange, SEC); not shown: His, N-terminal, cleaved
As to the kind of experiment: SEC; USP1 and UAF1 alone or together at 15 μM, 15 min on ice; SD200 Increase (10/300); 20 mM Tris pH 8.0, 150 mM NaCl, 5% glycerol, 5 mM DTT; fractions on SDS-PAGE, Coomassie. For orientation: Size exclusion chromatography separates by hydrodynamic size, large species first.

The target in assay [3] is T3, human PCNA-K164Ub (hsPCNA-Ub) (human | , UniProt P12004 1-261; P0CG48 1-76, K164 monoubiquitinated (isopeptide bond to ubiquitin) | C-terminus linked to K164 of PCNA).
T3 construct: PCNA, human; ubiquitin; Covalent conjugate; also called monoubiquitinated PCNA
The assay can be described thus: pull-down; N-terminal Strep-tagged UAF1 complexed with E. coli USP1, 10 μg bound to MagStrep beads and washed; 10 μg recombinant substrate, 1 h on ice; 50 mM Tris pH 7.5, 120 mM NaCl, 5% glycerol, 1 mM DTT, 0.01% Triton X-100, 0.01% ovalbumin; SDS-PAGE; beads without USP1–UAF1 as control.

B1: USP1^Δ1Δ2-R22A, E. coli-expressed (enzyme, human, UniProt O94782 1-785, looked up)
chain: MPGVIPSESNGLSRGSPSKKNALSLKFFQKKETKRALDFTDSQENEEKASEYRASEIDQVVPAAQSSPINCEKRENLLPFVGLNNLGNTCYLNSILQVLYFCPGFKSGVKHLFNIISRKKEALKDEANQKDKGNCKEDSLASYELICSLQSLIISVEQLQASFLLNPEKYTDELATQPRRLLNTLRELNPMYEGYLQHDAQEVLQCILGNIQETCQLLKKEEVKNVAENEVKPINKGEEQIGFELVEKLFQGQLVLRTRCLECESLTERREDFQDISVPVQEDELSKVEESSEISPEPKTEMKTLRWAISQFASVERIVGEDKYFCENCHHYTEAERSLLFDKMPEVITIHLKCFAASGLEFDCYGGGLSKINTPLLTPLKLSLEEWSTKPTNDSYGLFAVVMHSGITISSGHYTASVKVTDLNSLEQSLKEYEGKWLLFDDSEVKVTEEKDFLNSLSPSTSPTSTPYLLFYKKL
notes: USP1, human; Δ229–408, Δ608–737, R22A; source: E. coli BL21, purified (GSH resin, SEC)
As for B1, the binding result in assay [1] was “binds”.

B2: USP1^Δ1Δ2-L25A, E. coli-expressed (enzyme, human, UniProt O94782 1-785, looked up)
chain: MPGVIPSESNGLSRGSPSKKNRLSAKFFQKKETKRALDFTDSQENEEKASEYRASEIDQVVPAAQSSPINCEKRENLLPFVGLNNLGNTCYLNSILQVLYFCPGFKSGVKHLFNIISRKKEALKDEANQKDKGNCKEDSLASYELICSLQSLIISVEQLQASFLLNPEKYTDELATQPRRLLNTLRELNPMYEGYLQHDAQEVLQCILGNIQETCQLLKKEEVKNVAENEVKPINKGEEQIGFELVEKLFQGQLVLRTRCLECESLTERREDFQDISVPVQEDELSKVEESSEISPEPKTEMKTLRWAISQFASVERIVGEDKYFCENCHHYTEAERSLLFDKMPEVITIHLKCFAASGLEFDCYGGGLSKINTPLLTPLKLSLEEWSTKPTNDSYGLFAVVMHSGITISSGHYTASVKVTDLNSLEQSLKEYEGKWLLFDDSEVKVTEEKDFLNSLSPSTSPTSTPYLLFYKKL
notes: USP1, human; Δ229–408, Δ608–737, L25A (one of the alanine point mutants of the N-terminus); source: E. coli BL21, purified (GSH resin, SEC)
Turning to B2, in assay [1], the binding result is “binds”.

B3: USP1^ΔNΔ1Δ2 (Δ1–54, Δ229–408, Δ608–737), Sf21-expressed (domain or fragment, human, UniProt O94782 55-785, looked up)
chain: SEIDQVVPAAQSSPINCEKRENLLPFVGLNNLGNTCYLNSILQVLYFCPGFKSGVKHLFNIISRKKEALKDEANQKDKGNCKEDSLASYELICSLQSLIISVEQLQASFLLNPEKYTDELATQPRRLLNTLRELNPMYEGYLQHDAQEVLQCILGNIQETCQLLKKEEVKNVAENEVKPINKGEEQIGFELVEKLFQGQLVLRTRCLECESLTERREDFQDISVPVQEDELSKVEESSEISPEPKTEMKTLRWAISQFASVERIVGEDKYFCENCHHYTEAERSLLFDKMPEVITIHLKCFAASGLEFDCYGGGLSKINTPLLTPLKLSLEEWSTKPTNDSYGLFAVVMHSGITISSGHYTASVKVTDLNSLEQSLKEYEGKWLLFDDSEVKVTEEKDFLNSLSPSTSPTSTPYLLFYKKL
notes: USP1, human; N-terminus (Δ1–54), Insertion 1 (Δ229–408) and Insertion 2 (Δ608–737) deleted in the full-length background; the G670A/G671A site lies in the deleted Insertion 2; also called minimal USP1 catalytic domain; catalytic domain of USP1; source: Sf21 (baculovirus), purified (Ni-NTA, anion exchange, SEC)
Take B3: in assay [2], the binding result is recorded as “binds”.

B4: USP1^ΔNΔ1Δ2 (Δ1–54, Δ229–408, Δ608–737), E. coli-expressed (domain or fragment, human, UniProt O94782 55-785, looked up)
chain: SEIDQVVPAAQSSPINCEKRENLLPFVGLNNLGNTCYLNSILQVLYFCPGFKSGVKHLFNIISRKKEALKDEANQKDKGNCKEDSLASYELICSLQSLIISVEQLQASFLLNPEKYTDELATQPRRLLNTLRELNPMYEGYLQHDAQEVLQCILGNIQETCQLLKKEEVKNVAENEVKPINKGEEQIGFELVEKLFQGQLVLRTRCLECESLTERREDFQDISVPVQEDELSKVEESSEISPEPKTEMKTLRWAISQFASVERIVGEDKYFCENCHHYTEAERSLLFDKMPEVITIHLKCFAASGLEFDCYGGGLSKINTPLLTPLKLSLEEWSTKPTNDSYGLFAVVMHSGITISSGHYTASVKVTDLNSLEQSLKEYEGKWLLFDDSEVKVTEEKDFLNSLSPSTSPTSTPYLLFYKKL
notes: USP1, human; Δ1–54, Δ229–408, Δ608–737; also called E. coli–expressed USP1^ΔNΔ1Δ2; source: E. coli BL21, purified (GSH resin, SEC)
In the case of B4, the binding result in assay [1] is listed as “binds”.

B5: USP1^ΔNΔ1Δ2–UAF1 complex (Strep-tagged UAF1) (complex)
chain 1: SEIDQVVPAAQSSPINCEKRENLLPFVGLNNLGNTCYLNSILQVLYFCPGFKSGVKHLFNIISRKKEALKDEANQKDKGNCKEDSLASYELICSLQSLIISVEQLQASFLLNPEKYTDELATQPRRLLNTLRELNPMYEGYLQHDAQEVLQCILGNIQETCQLLKKEEVKNVAENEVKPINKGEEQIGFELVEKLFQGQLVLRTRCLECESLTERREDFQDISVPVQEDELSKVEESSEISPEPKTEMKTLRWAISQFASVERIVGEDKYFCENCHHYTEAERSLLFDKMPEVITIHLKCFAASGLEFDCYGGGLSKINTPLLTPLKLSLEEWSTKPTNDSYGLFAVVMHSGITISSGHYTASVKVTDLNSLEQSLKEYEGKWLLFDDSEVKVTEEKDFLNSLSPSTSPTSTPYLLFYKKL
chain 2: not shown
notes: USP1, human; Δ1–54, Δ229–408, Δ608–737; as m9; UAF1, human; as m7; Bait complex formed beforehand and held on MagStrep beads; source: E. coli USP1^ΔNΔ1Δ2 complexed with Sf21 Strep-UAF1, both purified; not shown: Strep11, N-terminal, kept
As to B5, the binding result in assay [3] is “binds”.

The values are drawn from article PMC6238601, “Specificity for deubiquitination of monoubiquitinated FANCD2 is driven by the N-terminus of USP1” (Life Science Alliance, 2018).
